# Assay results taken from US10877024B2, “Methods of determining interferon having direct inhibitory effects on tumors and uses thereof” (SUPERLAB FAR EAST LIMITED, priority 2015, dated 2020).
# Read-outs that look alike come from different tables or passages of the source.
# Legend:
# SW620 tumor cells = test: Cell viability, MTT assay, 1-6 days; assay type: cell-based, human; conditions: 10 μg/ml
# Procedure: The cell survival rate was evaluated in a standard MTT assay [3-(4,5-dimethylthiazol-2-yl)-2,5-diphenyltetrazolium bromide assay, Sigma, St. Louis, Mo.). For the assay, about 20 μl MTT (at 4 mg/ml) was added to each well. The cells were incubated at 37° C. for 4 hr. After that, the supernatant of each well was drawn off carefully and then an equal volume (150 microliter) of dimethyl sulfoxide (DMSO) was added to each well and mixed thoroughly on a shaker for 15 min. The absorbance from the plates was read at 595 nm with a Thermo Scientific Microplate Reader (Thermo Fisher Scientific Inc., Lowell, Mass.). The relative cell viability was calculated as follows: Cell viability=(Treated group(OD595) minus blank(OD595))/(Control group(OD595) minus blank(OD595))×100%.
# Lung cancer cells, A549 = test: Colony and pseudopod formation in three dimensional Matrigel culture; assay type: cell-based, human; conditions: 10 mcg/ml
# Procedure: Matrigel (from BD Corporation, Cat #: 356234) was thawed on ice in a 4° C. refrigerator overnight, and a 24-well plate was frozen at −20° C. overnight. Thereafter, each well of the frozen 24-well plate was coated with 150 μl of the Matrigel at 1.0 mg/ml. The Matrigel coated plate was then incubated 37° C. for 20-30 min. Lung cancer cells, A549, were trypsinized and counted. […] The cells were incubated at 37° C. for at least about 8 days. About 200 μl of the above conditioned medium was added every 3 days to prevent the medium from drying. On the 4th or 8th day, photographs were taken to observe the size of the colonies and invasive feet (pseudopod) formation. The experiment was conducted in triplicate.
# Axin2 = test: qPCR of Wnt signaling downstream gene in A549 cells; assay type: cell-based, human; conditions: 10 μg/ml, 24 hr
# Procedure: (§1) After 24 hr of treatment, cellular total mRNA was isolated using TRIZOL Reagent and cDNA was synthesized and further subjected to qPCR, using specific primers of four (4) Wnt signaling downstream genes, Axin2, CD24, Survivin and ID2. Experiments were conducted in triplicate and normalized with the Mock group.
# (§2) Total mRNA was isolated using TRIZOL Reagent (Invitrogen, Carlsbad, Calif.) according to the manufacturer's instructions. Complementary DNA (cDNA) was synthesized using a RT-PCR Kit (Cat #:FSQ-101, TOYOBO, Japan) according to the manufacturer's instructions and then subjected to qPCR with a SYBR Green PCR kit (Cat #: QPK-201, TOYOBO, Japan). The primers of the four Wnt pathway target genes were as follows: Axin2 sense primer: 5′-[…]-3′ (SEQ ID NO:8) and antisense primer: 5′-[…]-3′(SEQ ID NO: 9); CD24 sense primer: 5′-[…]-3′ (SEQ ID NO: 10) and antisense primer: 5′-[…]-3′(SEQ ID NO: 11); Survivin sense primer: 5′-[…]-3′ (SEQ ID NO: 12) and antisense primer: 5′-[…]-3′ (SEQ ID NO: 13) and ID2 sense primer: 5′-[…]-3′ (SEQ ID NO: 14) and antisense primer: 5′-[…]-3′(SEQ ID NO: 15).
# (§3) The amplification protocol consisted of incubations at 95° C. for 1 minute, 40 cycles (95° C. for 15 seconds, 60° C. for 15 seconds, 72° C. for 30 seconds). Incorporation of the SYBR Green dye into PCR products was monitored in real time with a Bio-Rad Detection System and subsequently analyzed using Bio-Rad CFX manager 2.1 software. The samples were pooled for each condition and run in duplicate. Treated samples were compared to Mock using the 2^−ΔΔCt method and plotted as fold change. GAPDH was used as the normalization control.
# CD24 = test: as above; assay type: cell-based, human; conditions: 10 μg/ml, 24 hr
# Procedure: as §1, §2, §3
# ID2 = test: as above; assay type: cell-based, human; conditions: 10 μg/ml, 24 hr
# Procedure: as §1, §2, §3
# Survivin = test: as above; assay type: cell-based, human; conditions: 10 μg/ml, 24 hr
# Procedure: as §1, §2, §3
# LRP6 = test: qPCR of Wnt-related co-receptor mRNA; assay type: cell-based, human; conditions: 10 μg/ml, 24 hr
# Procedure: The regulation of LRP6/FZD6 by rSIFN-co was investigated. This was conducted by qPCR as performed in Example 9. […] After 24 hr of treatment, total cellular mRNA was isolated using TRIZOL Reagent, and cDNA was subjected to qPCR using specific primers of LRP6 and FZD6. The primers used were: LRP6 sense primer: 5′-[…]-3′ (SEQ ID NO: 4) and antisense primer: 5′-[…]-3′ (SEQ ID NO: 5), and FZD6 sense primer: 5′-[…]-3′ (SEQ ID NO: 6) and antisense primer: 5′-[…]-3′ (SEQ ID NO: 7). Experiments were conducted in triplicate and normalized with the Mock control group. Results were recorded as relative mRNA level of either LRP6 or FZD6 relative to GAPDH.
# BATF2 = test: qPCR of tumor suppressor gene; assay type: cell-based, human; conditions: A549 cells, 10 mcg/ml, 24 hr
# From the text: (§4) After 24 hr of treatment, total cellular mRNA was isolated using TRIZOL Reagent, and cDNA was synthesized, and further subjected to qPRC using specific primers for DKK3, KLF4 and BATF2. The following primers were used: for BATF2, sense primers: 5′-[…]-3′ (SEQ ID NO: 16) and antisense primers: 5′-[…]-3′ (SEQ ID NO: 17); for DKK3, sense primers: 5′-[…]-3′(SEQ ID NO: 18) and antisense primers: 5′-[…]-3′ (SEQ ID NO: 19); for KLF4, sense primers: 5′-[…]-3′ (SEQ ID NO: 20) and antisense primers: 5′-[…]-3′ (SEQ ID NO: 21).
# (§5) The experiment was conducted in triplicate and normalized with the mock control group. Results, shown in FIG. 12, were expressed as relative mRNA expression level in relation to that of GAPDH.
# KLF4 = test: qPCR of tumor suppressor gene; assay type: cell-based, human; conditions: 10 mcg/ml, 24 hr
# From the text: as §4, §5
# [1] = test system: human lung cancer SPC-A4 xenografts; conditions: for TV(mm^3, mean ± SD) (D 0): day 0; for % Inhibition / RTV (mean ± SD) / T/C (%) / TV(mm^3, mean ± SD) (D 21): day 21
# Procedure: Under sterile conditions, well-grown tumors were cut into 1.5 mm^3 fragments and one such fragment was injected by trocar needle into the right flank of each study animal. […] Individual tumor size (length and width) was measured twice per week with microcalipers. Tumor volume (V) was calculated using the formula: V=(length×width^2)/2. Individual relative tumor volume (RTV) was calculated using the formula: RTV=Vt/V0, where Vt is the tumor volume on the day of measurement and V0 is the tumor volume on the day of first treatment. Therapeutic effect of the test article or control article was expressed in terms of T/C (%), using the formula: T/C (%)=(mean RTV of the treated group/mean RTV of the control group)×100%; and in terms of % Inhibition, using the formula: % Inhibition=100%−T/C %.
# The 1.5 mm^3 fragments were then used for s.c. implantation into the test animals. The body weight of the animals averaged 22±2 g at dose initiation.
# [2] = 0.05 mg/mouse i.t. every other day
# [3] = 0.10 mg/mouse i.t. every other day
# [4] = 0.15 mg/mouse i.t. every other day
molecule,measurement,setting,value
"rSIFN-co: Recombinant super-compound interferon; amino acid sequence SEQ ID NO: 1 (same as INFERGEN), encoded by novel nucleotide sequence SEQ ID NO: 2 (protein, Amino acid sequence of recombinant interferon) MCDLPQTHSLGNRRALILLAQMRRISPFSCLKDRHDFGFPQEEFDGNQFQKAQAISVLHEMIQQTFNLFSTKDSSAAWDESLLEKFYTELYQQLNDLEACVIQEVGVEETPLMNVDSILAVKKYFQRITLYLTEKKYSPCAWEVVRAEIMRSFSLSTNLQERLRRKE",cell viability over time (MTT),SW620 tumor cells,strongly decreased cell viability of SW620 cells in a time-dependent manner
same,size of the colonies,"Lung cancer cells, A549; after 4 days",smaller colonies than the untreated group
same,invasive feet (pseudopod) formation,"Lung cancer cells, A549; after 8 days",almost no extrusive pseudopodium around the cells
same,size of the colonies,"Lung cancer cells, A549; after 8 days",smallest colonies of the 3 groups
same,relative expression level of Axin2 mRNA (Mock control set at 1),Axin2,about 0.4
same,relative expression level of CD24 mRNA (Mock control set at 1),CD24,about 0.4
same,relative expression level of ID2 mRNA (Mock control set at 1),ID2,about 0.4
same,relative expression level of Survivin mRNA (Mock control set at 1),Survivin,about 0.4
same,relative expression of the LRP6 mRNA,LRP6; A549 cells,significant reduction
same,relative expression of the LRP6 mRNA,LRP6; HT-29 cells,significant reduction
same,relative expression of the LRP6 mRNA,LRP6; SW620 cells,significant reduction
same,relative mRNA expression level of BATF2,BATF2,dramatically increased
same,relative mRNA expression level of KLF4,KLF4; A549 cells,dramatically increased
same,relative mRNA expression level of KLF4,KLF4; SW620 cells,dramatically increased as compared to control and IFN alpha-2b treatment
same,mortality,[1]; [2],one mouse in the 0.05 mg rSIFN-co-treated group died on day 17
same,"TV(mm^3, mean ± SD) (D 0)",[1]; [2],170 ± 41 mm^3
same,% Inhibition,[1]; [2],63.68%
same,RTV (mean ± SD),[1]; [2],15.45 ± 9.07
same,T/C (%),[1]; [2],36.32%
same,"TV(mm^3, mean ± SD) (D 21)",[1]; [2],2244 ± 1043 mm^3
same,"TV(mm^3, mean ± SD) (D 0)",[1]; [3],168 ± 49 mm^3
same,% Inhibition,[1]; [3],64.95%
same,RTV (mean ± SD),[1]; [3],14.91 ± 11.19
same,T/C (%),[1]; [3],35.05%
same,"TV(mm^3, mean ± SD) (D 21)",[1]; [3],2388 ± 1544 mm^3
same,"TV(mm^3, mean ± SD) (D 0)",[1]; [4],169 ± 40 mm^3
same,% Inhibition,[1]; [4],67.75%
same,RTV (mean ± SD),[1]; [4],13.72 ± 3.96
same,T/C (%),[1]; [4],32.25%
same,"TV(mm^3, mean ± SD) (D 21)",[1]; [4],2284 ± 653 mm^3
same,"tolerability, signs of toxicity or weight loss","[1]; 0.05-0.15 mg/mouse i.t. every other day, 21 days",no signs of toxicity or weight loss were observed
